Experimental data from patent US20060051737A1 (ROCKEFELLER UNIVERSITY, published 2006).

B1: TRF1 (other, human, UniProt P54274 2-439, looked up)
chain: AEDVSSAAPSPRGCADGRDADPTEEQMAETERNDEEQFECQELLECQVQVGAPEEEEEEEEDAGLVAEAEAVAAGWMLDFLCLSLCRAFRDGRSEDFRRTRNSAEAIIHGLSSLTACQLRTIYICQFLTRIAAGKTLDAQFENDERITPLESALMIWGSIEKEHDKLHEEIQNLIKIQAIAVCMENGNFKEAEEVFERIFGDPNSHMPFKSKLLMIISQKDTFHSFFQHFSYNHMMEKIKSYVNYVLSEKSSTFLMKAAAKVVESKRTRTITSQDKPSGNDVEMETEANLDTRKSVSDKQSAVTESSEGTVSLLRSHKNLFLSKLQHGTQQQDLNKKERRVGTPQSTKKKKESRRATESRIPVSKSQPVTPEKHRARKRQAWLWEEDKNLRSGVRKYGEGNWSKILLHYKFNNRTSVMLKDRWRTMKKLKLISSDSED
B2: Rap1 (other, human, UniProt Q9NYB0 2-399, looked up)
chain: AEAMDLGKDPNGPTHSSTLFVRDDGSSMSFYVRPSPAKRRLSTLILHGGGTVCRVQEPGAVLLAQPGEALAEASGDFISTQYILDCVERNERLELEAYRLGPASAADTGSEAKPGALAEGAAEPEPQRHAGRIAFTDADDVAILTYVKENARSPSSVTGNALWKAMEKSSLTQHSWQSLKDRYLKHLRGQEHKYLLGDAPVSPSSQKLKRKAEEDPEAADSGEPQNKRTPDLPEEEYVKEEIQENEEAVKKMLVEATREFEEVVVDESPPDFEIHITMCDDDPPTPEEDSETQPDEEEEEEEEKVSQPEVGAAIKIIRQLMEKFNLDLSTVTQAFLKNSGELEATSAFLASGQRADGYPIWSRQDDIDLQKDDEDTREALVKKFGAQNVARRIEFRKK
notes: also called human Rap1
B3: TRF2 (other, human, UniProt Q15554 1-542, looked up)
chain: MAAGAGTAGPASGPGVVRDPAASQPRKRPGREGGEGARRSDTMAGGGGSSDGSGRAAGRRASRSSGRARRGRHEPGLGGPAERGAGEARLEEAVNRWVLKFYFHEALRAFRGSRYGDFRQIRDIMQALLVRPLGKEHTVSRLLRVMQCLSRIEEGENLDCSFDMEAELTPLESAINVLEMIKTEFTLTEAVVESSRKLVKEAAVIICIKNKEFEKASKILKKHMSKDPTTQKLRNDLLNIIREKNLAHPVIQNFSYETFQQKMLRFLESHLDDAEPYLLTMAKKALKSESAASSTGKEDKQPAPGPVEKPPREPARQLRNPPTTIGMMTLKAAFKTLSGAQDSEAAFAKLDQKDLVLPTQALPASPALKNKRPRKDENESSAPADGEGGSELQPKNKRMTISRLVLEEDSQSTEPSAGLNSSQEAASAPPSKPTVLNQPLPGEKNPKVPKGKWNSSNGVEEKETWVEEDELFQVQAAPDEDSTTNITKKQKWTVEESEWVKAGVQKYGEGNWAAISKNYPFVNRTAVMIKDRWRTMKRLGMN

The binders below were run against T1, human Rif1 (human, UniProt Q5UIP0 1-2472) (assay: co-immunoprecipitation).
T1 construct: Endogenous protein in extracts or fixed cells of human cell lines (e.g. HeLa); It is seen as a >250 kDa polypeptide; the predicted protein has 2472 amino acids and 274 kDa; also called hRif1
T1 sequence (Q5UIP0 other isoform, or with tags, fused parts or gaps limits assumed): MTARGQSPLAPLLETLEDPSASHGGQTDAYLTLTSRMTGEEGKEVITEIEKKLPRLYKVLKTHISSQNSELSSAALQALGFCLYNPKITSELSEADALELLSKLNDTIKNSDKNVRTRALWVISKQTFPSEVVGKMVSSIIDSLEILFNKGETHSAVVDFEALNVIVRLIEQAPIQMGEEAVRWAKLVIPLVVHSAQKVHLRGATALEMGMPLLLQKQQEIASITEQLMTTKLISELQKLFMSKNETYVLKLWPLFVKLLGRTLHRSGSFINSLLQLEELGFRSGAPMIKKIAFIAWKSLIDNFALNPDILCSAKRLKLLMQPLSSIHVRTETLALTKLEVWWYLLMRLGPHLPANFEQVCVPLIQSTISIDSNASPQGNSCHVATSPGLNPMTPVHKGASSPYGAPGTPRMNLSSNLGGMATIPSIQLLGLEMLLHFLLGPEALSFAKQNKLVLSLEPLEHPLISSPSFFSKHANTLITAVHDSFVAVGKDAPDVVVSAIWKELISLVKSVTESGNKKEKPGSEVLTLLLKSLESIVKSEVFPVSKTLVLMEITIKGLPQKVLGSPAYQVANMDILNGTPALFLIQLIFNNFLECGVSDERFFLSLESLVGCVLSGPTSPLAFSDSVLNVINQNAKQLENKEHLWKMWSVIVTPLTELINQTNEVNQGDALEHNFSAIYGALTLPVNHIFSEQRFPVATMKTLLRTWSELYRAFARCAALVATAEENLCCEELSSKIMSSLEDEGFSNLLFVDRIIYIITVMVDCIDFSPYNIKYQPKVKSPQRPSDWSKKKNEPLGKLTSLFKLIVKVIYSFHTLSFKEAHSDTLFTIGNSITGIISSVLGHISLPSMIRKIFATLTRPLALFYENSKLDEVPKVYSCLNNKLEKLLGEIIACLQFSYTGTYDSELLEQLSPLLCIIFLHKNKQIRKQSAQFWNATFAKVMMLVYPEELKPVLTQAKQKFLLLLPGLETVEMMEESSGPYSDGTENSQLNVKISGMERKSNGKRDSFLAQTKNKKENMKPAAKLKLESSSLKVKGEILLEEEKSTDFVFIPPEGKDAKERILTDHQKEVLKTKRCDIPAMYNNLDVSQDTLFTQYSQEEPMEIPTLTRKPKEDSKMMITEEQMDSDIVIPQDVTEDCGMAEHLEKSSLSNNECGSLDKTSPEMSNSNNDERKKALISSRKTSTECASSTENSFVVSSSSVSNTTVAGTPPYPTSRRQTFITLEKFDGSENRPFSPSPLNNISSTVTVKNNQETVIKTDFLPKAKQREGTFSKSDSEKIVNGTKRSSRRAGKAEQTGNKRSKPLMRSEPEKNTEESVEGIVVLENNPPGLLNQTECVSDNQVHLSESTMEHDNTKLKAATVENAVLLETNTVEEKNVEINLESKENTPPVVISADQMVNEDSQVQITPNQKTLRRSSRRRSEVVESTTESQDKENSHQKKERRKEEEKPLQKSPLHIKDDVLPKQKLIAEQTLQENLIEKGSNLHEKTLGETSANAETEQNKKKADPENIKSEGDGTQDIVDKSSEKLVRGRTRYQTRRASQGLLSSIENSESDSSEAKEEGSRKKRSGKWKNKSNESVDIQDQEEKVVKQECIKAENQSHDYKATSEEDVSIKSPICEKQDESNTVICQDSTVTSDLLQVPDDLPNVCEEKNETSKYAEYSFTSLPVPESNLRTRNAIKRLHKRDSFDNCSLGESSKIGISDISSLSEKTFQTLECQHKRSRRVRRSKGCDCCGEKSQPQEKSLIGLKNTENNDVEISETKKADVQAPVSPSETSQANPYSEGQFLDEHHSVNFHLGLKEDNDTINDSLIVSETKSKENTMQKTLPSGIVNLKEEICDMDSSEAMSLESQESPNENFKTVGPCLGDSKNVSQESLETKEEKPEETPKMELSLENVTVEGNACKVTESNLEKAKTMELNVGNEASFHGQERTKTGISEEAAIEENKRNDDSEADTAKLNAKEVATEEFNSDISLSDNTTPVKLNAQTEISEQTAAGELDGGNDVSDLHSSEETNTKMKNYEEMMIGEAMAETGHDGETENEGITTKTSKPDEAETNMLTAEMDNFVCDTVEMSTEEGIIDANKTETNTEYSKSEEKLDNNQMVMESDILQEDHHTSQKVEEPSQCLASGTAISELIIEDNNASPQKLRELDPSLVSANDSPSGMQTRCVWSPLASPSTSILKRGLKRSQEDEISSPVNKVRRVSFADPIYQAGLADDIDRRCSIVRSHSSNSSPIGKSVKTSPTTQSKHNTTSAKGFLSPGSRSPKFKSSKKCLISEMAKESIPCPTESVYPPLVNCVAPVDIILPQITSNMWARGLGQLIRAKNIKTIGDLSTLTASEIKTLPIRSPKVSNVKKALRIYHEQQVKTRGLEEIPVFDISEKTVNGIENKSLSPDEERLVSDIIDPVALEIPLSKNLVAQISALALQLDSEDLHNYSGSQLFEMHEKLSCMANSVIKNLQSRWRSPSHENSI
B1: no binding.
B2: no binding.
B3: no binding.
